From the supplement of paper PMC12042874 come the findings set out here.

± gives the uncertainty stated by the source.

The data set in a line: amyloid nucleation score (Sup35N fusion, yeast selection) (log enrichment); library NNK2; higher = more nucleation; inactive = no reads after selection. An outline of the steps: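 Peptides of 20 random codons, each fused to Sup35N, were expressed in psi-negative yeast. Cells were induced with 100 μM copper sulfate for 24 hours and grown 7 days at 30°C on medium lacking adenine and uracil, and plasmid inserts before and after selection were Illumina-sequenced. Nucleation scores are DiMSum log enrichments of output over input reads, centred on the mode score of non-aggregating sequences, and sequences under 100 input reads were excluded.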
Turning to SVPDFDRWAFTGRVQTYADC, the amyloid nucleation score is -0.614 ± 0.79.
For TGLNLFRDSQTGELGGGYTR the value was 5.495 ± 0.049; for DLHPGNSNAD, -0.146 ± 0.54.
With FPKIQSKFSRDIFSDGNEYE, the amyloid nucleation score entry is “inactive”.
TSSVPGLRSWVWVKQDSDRW came in with an amyloid nucleation score of 1 ± 0.19.
The value for QSTYCQRRCVC was 0.042 ± 0.63.
The value for RRFTINFKDK was -1.2 ± 0.78.
For GLSGKCLYFISVWYTKFLIS the value was “inactive”; for RLKELRQDIPVMPNRQL, 1.51 ± 0.3.
In turn, RYPFFEMVRSTMQSMIENQ showed an amyloid nucleation score of 0.612 ± 0.3.
For WLRDYRLWATT the value was -0.223 ± 0.63; for LMAKVRLRVGLGHWLDVWG, 2.93 ± 0.12.
For VCYKYRTCYIYISFRSNFST the value was -1.04 ± 1.1.
The value for IWYCRK was -1.11 ± 0.44; that for NTVKKLHLLQHHRVYVCATT was -0.965 ± 0.78.
As to YFFFIVLDLYLMSCFGVVCE, the amyloid nucleation score was -1.13 ± 0.76.
The value for SLLWFKTVSLLRYNQF was -0.363 ± 0.65.
For LCWMRFLDSCEEVHKSIHVF the value was 0.38 ± 0.39; for SDRGYSE, 3.2 ± 0.14.
The value for FSGSALGCEMRYCSRVYWQR was 4.46 ± 0.063; that for CMEETMVSSLKLLTRPMTSR was 0.052 ± 0.29; that for VSFNGSVGMS was -0.907 ± 1.1.
As for YNMIYYQLNTMLVHDMIKYG, the amyloid nucleation score was determined as 3.56 ± 0.073.
The value for RHSCFICFNVLVICGLNLSL was 5.927 ± 0.037; that for ISSMSTLFCLFRGCVGGEYI was -2.18 ± 0.64.
As to RPQKSSARRIVPFMMFWLGN, the amyloid nucleation score was 0.426 ± 0.36.
For WQIGCLADIYSYLPDGNTVG the value was -0.389 ± 0.4.
The value for TYEMTRMSGIKSSLLPREFW was 1.52 ± 0.17.
The value for QWIWSHSNHNSWIPGSGVVD was -1.13 ± 0.76; that for VDYVGSYTVSEDREENLAKP was 3.75 ± 0.096; that for GMKCAAFSESVNHRLQFNGT was -0.345 ± 0.33.
Take NFVNSFRVPISVYKVYLYGG: the amyloid nucleation score is 4.49 ± 0.08.
For FNAERFLQSIEMVWWDKGFL the value was -1.53 ± 0.41; for RYNILSSSATV, “inactive”.
For LLFARK the value was -0.038 ± 1.1; for WLFRGSIVKWTPHRPDRYAC, -0.088 ± 0.46; for AVAASLMFYVCFITADIADM, 0.859 ± 0.74.
The substance RYWKFA displayed an amyloid nucleation score of 0.744 ± 0.74.
For RISRFMPCSRS the value was 1.11 ± 0.52; for LARACKIEAYFLLVHVSIMC, -0.174 ± 0.76.
The substance RKNSLHTMWMGKMVCSCFKL gave an amyloid nucleation score of 5.69 ± 0.063.
For IVLTLDLSRRVGMRNCVLLG the value was -0.063 ± 0.54; for IRMDGYEIRFSHSLYYLSH, 2.45 ± 0.081.
The value for MTRTFYCFQGRHLDSWDQGE was 0.371 ± 0.8.
For CTCFVLSGSVV the value was 2.4 ± 0.13; for IPRCKKW, 3.22 ± 0.1; for FFLGDRIWL, “inactive”.
On to MDPYYRKICSCDVGVNYRFL, for which the amyloid nucleation score entry is “inactive”.
The value for CLLHMWIGLSSKVGGVRDA was -0.781 ± 0.79; that for NSVMIDTDVKFAFFRSET was “inactive”; that for HLWFEDAQFAIAKFKCGGKR was 6.16 ± 0.086.
Turning to RVMRCGCIDVQAILNVIVSQ, the amyloid nucleation score worked out at 9.316 ± 0.039.
On to YKLTGLDYKWASLNATWETQ, for which the amyloid nucleation score entry was “inactive”.
The value for FYMLASPSSTLDSTPKVRSC was -0.665 ± 1.1.
In turn, GKILVAFLWPISCVR returned an amyloid nucleation score of 0.037 ± 0.65.
The value for TFLYREVPLRRYR was 0.135 ± 0.63.
The value for SFFQSVMPYHLVYLGQILLN was -1.25 ± 0.34.
